In patent publication US6384189:

Target: recombinant small latent TGF-β
Experiment: cell-based or functional assay

Fold Activation of Latent TGF-β over Baseline (soft agar NRK colony formation) (fold over baseline) | Substance
2.5 | RFK (SEQ ID NO:18) (peptide)
2 | TSP stripped of TGF-β activity (sTSP) (from UniProt P07996 19-1170)
